This data set deals with hsTFB1M (Homo sapiens, UniProt Q8WVM0 28-346). As to the kind of experiment: X-ray crystallography; no SAM (binary complex), 3.0 A; EMSA: 50 mM Tris-HCl pH 8.0, 25 mM NaCl, 100 nM RNA, TFB1M 0-2 mM as printed (legend suggests uM), 37 C 30 min; 6% native PAGE, 0.5x TBE. The following applies: protein: recombinant; tags: His6-MBP N-terminal, removed by TEV; hairpin. (A gel shift assay detects complexes by their altered migration in electrophoresis.)

The results in this text go back to PMC6698656, “Structural insights into dimethylation of 12S rRNA by TFB1M: indispensable role in translation of mitochondrial genes and mitochondrial function”.

hsTFB1M, sequence (Q8WVM0 28-346): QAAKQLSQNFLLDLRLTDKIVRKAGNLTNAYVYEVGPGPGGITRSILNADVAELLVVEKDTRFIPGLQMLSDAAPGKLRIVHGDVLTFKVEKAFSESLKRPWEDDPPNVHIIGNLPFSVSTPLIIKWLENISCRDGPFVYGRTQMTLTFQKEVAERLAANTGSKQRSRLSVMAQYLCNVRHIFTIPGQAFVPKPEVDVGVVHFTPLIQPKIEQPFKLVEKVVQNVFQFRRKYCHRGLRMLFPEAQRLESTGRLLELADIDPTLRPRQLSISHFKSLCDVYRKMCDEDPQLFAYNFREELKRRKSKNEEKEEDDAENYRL

GGUAAGUGUACUGGAAAGUGCACUUGCC (structured_RNA) [h45 RNA (crystal)]: the binding result is “binds”.
